Measurements published in PMC8399149, “Engineering of Yeast Old Yellow Enzyme OYE3 Enables Its Capability Discriminating of (E)-Citral and (Z)-Citral” (Molecules, 2021).

Assays:
purified protein [1] = substrate: CC(C)=CCC/C(C)=C/C=O; assay: purified protein; assay type: biochemical, Saccharomyces cerevisiae; conditions: FMN, NADPH active site
purified protein [2] = substrate: CC(C)=CCC/C(C)=C\C=O; assay: purified protein; assay type: biochemical, Saccharomyces cerevisiae; conditions: FMN; NADPH active site; H191/N194 hydrogen bonds with the carbonyl oxygen of citral, hydride from FMNH2 to Cβ, Y196 proton donor (docking)
[3] = H191/N194 hydrogen bonds with the carbonyl oxygen of citral, hydride from FMNH2 to Cβ, Y196 proton donor (docking)

B1: old yellow enzyme OYE3 (Saccharomyces cerevisiae S288C; S297F/W117G) (protein)
chain: MPFVKGFEPISLRDTNLFEPIKIGNTQLAHRAVMPPLTRMRATHPGNIPNKEWAAVYYGQRAQRPGTMIITEGTFISPQAGGYDNAPGIWSDEQVAEWKNIFLAIHDCQSFAWVQLGSLGWASFPDVLARDGLRYDCASDRVYMNATLQEKAKDANNLEHSLTKDDIKQYIKDYIHAAKNSIAAGADGVEIHSANGYLLNQFLDPHSNKRTDEYGGTIENRARFTLEVVDALIETIGPERVGLRLSPYGTFNSMSGGAEPGIIAQYSYVLGELEKRAKAGKRLAFVHLVEPRVTDPFLVEGEGEYSEGTNDFAYSIWKGPIIRAGNYALHPEVVREQVKDPRTLIGYGRFFISNPDLVYRLEEGLPLNKYDRSTFYTMSAEGYTDYPTYEEAVDLGWNKN
- Km (purified protein [1]; accommodation similar to OYE3 (docking)): 90 µM

B2: old yellow enzyme OYE3 (Saccharomyces cerevisiae S288C) (protein)
chain: PFVKGFEPISLRDTNLFEPIKIGNTQLAHRAVMPPLTRMRATHPGNIPNKEWAAVYYGQRAQRPGTMIITEGTFISPQAGGYDNAPGIWSDEQVAEWKNIFLAIHDCQSFAWVQLWSLGWASFPDVLARDGLRYDCASDRVYMNATLQEKAKDANNLEHSLTKDDIKQYIKDYIHAAKNSIAAGADGVEIHSANGYLLNQFLDPHSNKRTDEYGGTIENRARFTLEVVDALIETIGPERVGLRLSPYGTFNSMSGGAEPGIIAQYSYVLGELEKRAKAGKRLAFVHLVEPRVTDPSLVEGEGEYSEGTNDFAYSIWKGPIIRAGNYALHPEVVREQVKDPRTLIGYGRFFISNPDLVYRLEEGLPLNKYDRSTFYTMSAEGYTDYPTYEEAVDLGWNKN
- Km (purified protein [1]; [3]): 50 ± 10 µM
- Vmax (purified protein [1]; [3]): 0.16 µmol/min/mg
- kcat (purified protein [1]; [3]): 0.13 ± 0.02 s⁻¹
- kcat/Km (purified protein [1]; [3]): 2760 ± 110 M⁻¹ s⁻¹
- Km (purified protein [2]): 70 ± 10 µM
- Vmax (purified protein [2]): 0.12 µmol/min/mg
- kcat (purified protein [2]): 0.1 ± 0.01 s⁻¹
- kcat/Km (purified protein [2]): 1490 ± 80 M⁻¹ s⁻¹
